Laboratory results published in PMC7545189, “Structural characterization of the ICOS/ICOS-L immune complex reveals high molecular mimicry by therapeutic antibodies” (Nature Communications, 2020).
Where a chain is given by its changes, count along the chain named. Numbers in names are those of the source.

T1: human ICOS-L ectodomain (residues 19-248), crystallised in complexes (human, UniProt O75144 19-248)
T1 construct: not shown: Venus (monomeric variant), C-terminal, cleaved; His6, C-terminal, cleaved
T1 sequence (looked up): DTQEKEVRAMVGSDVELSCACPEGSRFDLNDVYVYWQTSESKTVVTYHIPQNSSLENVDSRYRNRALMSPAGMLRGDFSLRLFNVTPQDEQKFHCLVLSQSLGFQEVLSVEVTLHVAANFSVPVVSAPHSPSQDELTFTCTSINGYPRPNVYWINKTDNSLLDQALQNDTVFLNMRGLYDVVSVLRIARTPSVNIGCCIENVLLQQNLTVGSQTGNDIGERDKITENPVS

T2: human ICOS ectodomain N110Q, His-tagged, immobilised for STIM003 binding (human, UniProt Q9Y6W8 21-138, N110Q)
T2 sequence: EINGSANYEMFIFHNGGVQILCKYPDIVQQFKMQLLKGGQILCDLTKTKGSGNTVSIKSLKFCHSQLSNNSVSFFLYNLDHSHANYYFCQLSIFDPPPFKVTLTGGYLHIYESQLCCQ

T3: human ICOS ectodomain (residues 21-138), His-tagged, immobilised on Ni-NTA biosensors (human, UniProt Q9Y6W8 21-138)
T3 chain: T2 sequence with Q90N

T4: human ICOS ectodomain (residues 21-138), untagged, disulfide-linked homodimer (human, UniProt Q9Y6W8 21-138)
T4 chain: T2 sequence with Q90N

T5: human ICOS ectodomain N110Q (N110 glycan knock-out mutant), analyte (human, UniProt Q9Y6W8 21-138, N110Q)
T5 sequence: T2 sequence

T6: human ICOS-L ectodomain (residues 19-248), untagged monomer (human, UniProt O75144 19-248)
T6 construct: Residues of the TEV site probably remain at the C-terminus after cleavage; also called ICOS-L ectodomain monomer; CD275; source: HEK 293F, transiently transfected, purified (HisTrap Ni-NTA, TEV digestion, second Ni-NTA, Superdex 200); not shown: Venus (monomeric variant), C-terminal, cleaved; His6, C-terminal, cleaved
T6 sequence (looked up): T1 sequence (looked up)

T7: human ICOS-L ectodomain (residues 19-248), His-tagged, immobilised on Ni-NTA biosensors (human, UniProt O75144 19-248)
T7 construct: also called ICOS ligand; CD275; source: HEK 293F, transiently transfected, purified from the supernatant (HisTrap Ni-NTA); not shown: His6, C-terminal, kept
T7 sequence (looked up): T1 sequence (looked up)

B1: human ICOS ectodomain (residues 21-129), crystallised with ICOS-L and VNAR (domain or fragment, UniProt Q9Y6W8 21-129, looked up)
chain: EINGSANYEMFIFHNGGVQILCKYPDIVQQFKMQLLKGGQILCDLTKTKGSGNTVSIKSLKFCHSQLSNNSVSFFLYNLDHSHANYYFCNLSIFDPPPFKVTLTGGYLH
modifications: N-linked glycan at N110 seen in the structure (two GlcNAc and three mannose residues)
notes: not shown: Venus (monomeric variant), C-terminal, cleaved; His6, C-terminal, cleaved
B2: STIM003 Fab (purified, for BLI) (Fab, V domains shown)
VH: EVQLVESGGGVVRPGGSLRLSCVASGVTFDDYGMSWVRQAPGKGLEWVSGINWNGGDTDYSDSVKGRFTISRDNAKNSLYLQMNSLRAEDTALYYCARDFYGSGSYYHVPFDYWGQGILVTVSS
VL: EIVLTQSPGTLSLSPGERATLSCRASQSVSRSYLAWYQQKRGQAPRLLIYGASSRATGIPDRFSGDGSGTDFTLSISRLEPEDFAVYYCHQYDMSPFTFGPGTKVDIK
notes: Fab heavy chain of STIM003; Fab light chain (kappa) of STIM003; Kappa light chain (KappaSelect purification); also called anti-ICOS monoclonal antibody; source: HEK 293F, transiently co-transfected LC and HC, purified (KappaSelect, MonoS, Superdex 200)
B3: STIM003 Fab (co-expressed with ICOS, for the crystal structure) (Fab, V domains shown)
VH: B2 VH
VL: B2 VL
notes: as the heavy chain of m12; as the light chain (kappa) of m12; source: HEK 293S (Gnt I-/-), co-transfected with ICOS C136A C137A N23Q, complex purified
B4: human ICOS-L ectodomain (residues 19-248), His-tagged, immobilised on Ni-NTA biosensors (ligand)
chain: T1 sequence (looked up)
B5: prezalumab Fab (purified, for BLI) (Fab, V domains shown)
VH: EVQLVESGGGLVQPGGSLRLSCAASGFTFSSYWMSWVRQAPGKGLEWVAYIKQDGNEKYYVDSVKGRFTISRDNAKNSLYLQMNSLRAEDTAVYYCAREGILWFGDLPTFWGQGTLVTVSS
VL: DIQMTQSPSSLSASVGDRVTITCRASQGISNWLAWYQQKPEKAPKSLIYAASSLQSGVPSRFSGSGSGTDFTLTISSLQPEDFATYYCQQYDSYPRTFGQGTKVEIK
notes: Fab heavy chain of prezalumab; Fab light chain of prezalumab; Purified on KappaSelect; also called humanized monoclonal anti ICOS-L antibody; source: HEK 293F, transiently co-transfected LC and HC, purified (KappaSelect, MonoS, Superdex 200)
B6: prezalumab Fab (co-expressed with ICOS-L and VNAR, for the crystal structure) (Fab, V domains shown)
VH: B5 VH
VL: B5 VL
notes: as the heavy chain of m14; as the light chain of m14; source: HEK 293S (Gnt I-/-), co-transfected with ICOS-L and VNAR, complex purified
B7: human ICOS ectodomain (residues 21-138), His-tagged, immobilised on Ni-NTA biosensors (receptor, UniProt Q9Y6W8 21-138, looked up)
chain: T2 sequence with Q90N
notes: human ICOS ectodomain, UniProtKB Q9Y6W8, residues 21-138, followed by a TEV cleavage site; The His6 tag of the vector lies C-terminal of TEV site and Venus, so the His-tagged form used for loading is probably the undigested ICOS-TEV-Venus-His6 fusion; also called inducible T-cell co-stimulator; CD278; source: HEK 293F, transiently transfected, purified from the supernatant (HisTrap Ni-NTA); not …
B8: human ICOS ectodomain (residues 21-138), untagged, disulfide-linked homodimer (receptor, UniProt Q9Y6W8 21-138, looked up)
chain: T2 sequence with Q90N
notes: human ICOS ectodomain, UniProtKB Q9Y6W8, residues 21-138; Residues of the TEV site probably remain at the C-terminus after cleavage; also called ICOS WT; ICOS disulfide-linked homodimers; source: HEK 293F, transiently transfected, purified (HisTrap Ni-NTA, TEV digestion, second Ni-NTA, Superdex 200); not shown: Venus (monomeric variant), C-terminal, cleaved; His6, C-terminal, cleaved
B9: human ICOS ectodomain N110Q (N110 glycan knock-out mutant), analyte (receptor, UniProt Q9Y6W8 21-138, looked up)
chain: T2 sequence
notes: human ICOS ectodomain, UniProtKB Q9Y6W8, N110Q removes the N-linked glycosylation site; limits are those of the ectodomain construct of the methods; also called ICOS N110Q; ICOS N110 glycan knock-out mutant; source: HEK 293F, transiently transfected, purified (as the ICOS ectodomain); not shown: Venus (monomeric variant), C-terminal, cleaved; His6, C-terminal, cleaved

How the values were obtained:
[1] = molecular target: T1, human ICOS-L ectodomain (residues …); experiment: crystal structure; ICOS (21-129)/ICOS-L (19-248)/VNAR complex, co-expressed and co-purified, 3.3 A; 0.1 M HEPES pH 7.0, 30% Jeffamine ED-2001; details: both partners purified
[2] = molecular target: T8, human ICOS ectodomain (residues 21-138), His-tagged, immobilised on Ni-NTA biosensors (human, UniProt Q9Y6W8); experiment: BLI; His-tagged ICOS or ICOS-L on Ni-NTA biosensors, Fabs as analytes (prezalumab 1:2 serial dilutions from 31 nM); PBS pH 7.4, 0.01% BSA, 0.002% Tween; 1:1 fit; details: both partners purified
T8 construct: human ICOS ectodomain, UniProtKB Q9Y6W8, residues 21-138, followed by a TEV cleavage site; The His6 tag of the vector lies C-terminal of TEV site and Venus, so the His-tagged form used for loading is probably the undigested ICOS-TEV-Venus-His6 fusion; also called inducible T-cell co-stimulator; CD278; source: HEK 293F, transiently transfected, purified from the supernatant (HisTrap Ni-NTA); not …

[3] = molecular target: T2, human ICOS ectodomain N110Q, …; experiment: BLI
[4] = molecular target: T3, human ICOS ectodomain (residues …); experiment: BLI
[5] = molecular target: T2, human ICOS ectodomain N110Q, …; experiment: BLI; remark: listed apart in the source
[6] = molecular target: T3, human ICOS ectodomain (residues …); experiment: BLI
[7] = molecular target: T9, human ICOS C136A C137A N23Q (residues 21-138), crystallised with STIM003 Fab (human, UniProt Q9Y6W8, C136A | C137A | N23Q); experiment: crystal structure; ICOS C136A C137A N23Q/STIM003 Fab complex, co-expressed and co-purified, then incubated 1:5 with anti-kappa VHH and gel filtered, 2.38 A; 0.2 M di-sodium hydrogen phosphate, 20% PEG 3350; details: both partners purified
T9 construct: human ICOS ectodomain, UniProtKB Q9Y6W8, residues 21-138 with C136A, C137A and N23Q; not shown: Venus (monomeric variant), C-terminal, cleaved; His6, C-terminal, cleaved
T9 sequence (Q9Y6W8 21-138 N23Q/C136A/C137A): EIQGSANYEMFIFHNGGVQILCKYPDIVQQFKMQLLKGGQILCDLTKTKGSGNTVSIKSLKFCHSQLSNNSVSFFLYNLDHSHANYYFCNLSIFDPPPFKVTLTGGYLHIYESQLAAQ

[8] = molecular target: T4, human ICOS ectodomain (residues …); experiment: BLI; ICOS-L immobilized
[9] = molecular target: T5, human ICOS ectodomain N110Q (N110 …); experiment: BLI
[10] = molecular target: T5, human ICOS ectodomain N110Q (N110 …); experiment: BLI; remark: listed apart in the source
[11] = molecular target: T4, human ICOS ectodomain (residues …); experiment: BLI; ICOS-L immobilized
[12] = molecular target: T10, human ICOS-L ectodomain (residues 19-248), His-tagged, immobilised on Ni-NTA biosensors (human, UniProt O75144); experiment: BLI; His-tagged ICOS or ICOS-L on Ni-NTA biosensors, Fabs as analytes (prezalumab 1:2 serial dilutions from 31 nM); PBS pH 7.4, 0.01% BSA, 0.002% Tween; 1:1 fit; details: both partners purified
T10 construct: also called ICOS ligand; CD275; source: HEK 293F, transiently transfected, purified from the supernatant (HisTrap Ni-NTA); not shown: His6, C-terminal, kept

[13] = molecular target: B4; experiment: BLI
[14] = molecular target: B4; experiment: BLI
[15] = molecular target: T11, human ICOS-L ectodomain (residues 19-248), crystallised in complexes (human, UniProt O75144); experiment: crystal structure; ICOS-L/prezalumab Fab/VNAR complex, co-expressed and co-purified, 3.15 A; 0.2 M di-ammonium tartrate, 20% PEG 3350; details: both partners purified
T11 construct: not shown: Venus (monomeric variant), C-terminal, cleaved; His6, C-terminal, cleaved

[16] = molecular target: T6, human ICOS-L ectodomain (residues …); experiment: BLI; His-tagged ICOS on Ni-NTA biosensors (0.8 nm), untagged ICOS-L as analyte, 1:2 serial dilutions from 500 nM; PBS pH 7.4, 0.01% BSA, 0.002% Tween; 180 s association and dissociation; 1:1 fit; details: both partners purified
[17] = molecular target: T7, human ICOS-L ectodomain (residues …); experiment: BLI; His-tagged ICOS-L on Ni-NTA biosensors (0.8 nm), untagged ICOS (wild-type and mutants) as analyte, 1:2 serial dilutions from 125 nM; PBS pH 7.4, 0.01% BSA, 0.002% Tween; 1:1 fit; apparent constant (avidity of the ICOS homodimer); details: both partners purified

Binder: B1
stoichiometry N [1]: 1

Binder: B2
binding result [2]: binds
Kd [3]: 1.8 nM
Kd [4]: 2 nM
koff [5]: 0.001 s⁻¹
koff [6]: 0.00072 s⁻¹

Binder: B3
binding result [7]: binds

Binder: B4
koff [8]: 0.0012 s⁻¹
Kd [9]: 0.7 nM
koff [10]: 0.00071 s⁻¹
Kd [11]: 3 nM

Binder: B5
binding result [12]: binds
Kd [13]: 5.5 nM
koff [14]: 0.0045 s⁻¹

Binder: B6
binding result [15]: binds

Binder: B7
Kd [16]: 722 nM
koff [16]: 0.16 s⁻¹

Binder: B8
Kd [17]: 10 nM

Binder: B9
fold improvement in binding affinity against WT ICOS [17]: 4.3 fold
